The values that follow come from patent US20240398963A1 (priority 2021, published 2024).

This data set is classed as physicochemical. The settings on record: 10 mM PBS buffer (pH=7.4), 37° C., 100 rpm shaker; free drug by HPLC, average release per day. How it is done: The drug release and stability experiments were run using the test compounds. About 2.5±1.0 mg/mL (with regard to conjugate) solution of each test compound was prepared with 10 mM PBS buffer (pH=7.4) in Millipore Amicon® Ultra-0.5 ml 30 k Ultrafiltration centrifuge tube. The solution was kept swelling for 1 h at room temperature and then placed in a shaker at 100 rpm, 37° C. for continuous experiment. At the same time point of each day, samples were centrifuged at 10000 rpm for 1 h. The aliquot was transferred to HPLC vial for analysis. An 0.4 mL of 10 mM PBS buffer was added into the centrifuge tube and continue the experiment.
For the HPLC analysis at each time point, the peak areas of all relevant peaks from the chromatograms were retrieved and the concentration of free drug was calculated. Average release of free drug was calculated based on the sum of free drug and numbers of experiment days. The computing equation is as below.
The sample degradation rate was calculated based on the concentration and degree of substitution (NMR) for conjugated drug with regard to the initial starting point of the experiment (at t=0). The computing equation is as below.
Regarding “Conjugate of HA and 2-((6αS,6βR,7S,8αS,8βS,11αR,12αS,12βS)-6β-fluoro-7-hydroxy-6α,8α,10,10-tetramethyl-4-oxo-1,2,4,6α,6β,7,8,8α,11α,12,12α,12β-dodecahydro-8βH-naphtho[2′,1′:4,5]indeno[1,2-d][1,3]dioxol-8β-yl)-2-oxoethyl 2,5-diazabicyclo[2.2.1]heptane-2-carboxylate [Example 58]”, the Release rate is on record as 0.25 %/day.

Take “Conjugate of HA and 2-((6αS,6βR,7S,8αS,8βS,11αR,12αS,12βS)-6β-fluoro-7-hydroxy-6α,8α,10,10-tetramethyl-4-oxo-1,2,4,6α,6β,7,8,8α,11α,12,12α,12β-dodecahydro-8βH-naphtho[2′,1′:4,5]indeno[1,2-d][1,3]dioxol-8β-yl)-2-oxoethyl glycylglycylglycinate [Example 19]”: the Release rate worked out at 17.57 %/day.

As to “Conjugate of CS and 2-((8S,9R,10S,11S,13S,14S,16R,17R)-9-fluoro-11,17-dihydroxy-10,13,16-trimethyl-3-oxo-6,7,8,9,10,11,12,13,14,15,16,17-dodecahydro-3H-cyclopenta[a]phenanthren-17-yl)-2-oxoethyl 4-aminobutanoate [Example 45]”, the Release rate is recorded as 0.40 %/day.

In turn, “Conjugate of HA and 2-((8S,9S,10R,11S,13S,14S,17R)-11,17-dihydroxy-10,13-dimethyl-3-oxo-2,3,6,7,8,9,10,11,12,13,14,15,16,17-tetradecahydro-1H-cyclopenta[a]phenanthren-17-yl)-2-oxoethyl 5-aminopentanoate [Example 76]” had a Release rate of 2.66 %/day.

As for “Conjugate of HA and 2-((8S,9R,10S,11S,13S,14S,16R,17R)-9-fluoro-11,17-dihydroxy-10,13,16-trimethyl-3-oxo-6,7,8,9,10,11,12,13,14,15,16,17-dodecahydro-3H-cyclopenta[a]phenanthren-17-yl)-2-oxoethyl 5-aminopentanoate [Example 79]”, the Release rate was found to be 4.42 %/day.

In turn, “Conjugate of HA and 2-((8S,9R,10S,11S,13S,14S,16R,17R)-9-fluoro-11,17-dihydroxy-10,13,16-trimethyl-3-oxo-6,7,8,9,10,11,12,13,14,15,16,17-dodecahydro-3H-cyclopenta[a]phenanthren-17-yl)-2-oxoethyl 6-aminohexanoate [Example 83]” came in with a Release rate of 2.15 %/day.

Substance “Conjugate of HA and 4-aminobutyl (2-((8S,9S,10R,13S,14S,17R)-17-hydroxy-10,13-dimethyl-3,11-dioxo-6,7,8,9,10,11,12,13,14,15,16,17-dodecahydro-3H-cyclopenta[a]phenanthren-17-yl)-2-oxoethyl) carbonate [Example 60]” gave a Release rate of 15.04 %/day.

As to “Conjugate of HA and 2-((8S,9R,10S,11S,13S,14S,16S,17R)-9-fluoro-11,17-dihydroxy-10,13,16-trimethyl-3-oxo-6,7,8,9,10,11,12,13,14,15,16,17-dodecahydro-3H-cyclopenta[a]phenanthren-17-yl)-2-oxoethyl 6-aminohexanoate [Example 84]”, the Release rate turned out to be 3.73 %/day.

Take “Conjugate of HA and 2-((8S,9S,10R,13S,14S,17R)-17-hydroxy-10,13-dimethyl-3,11-dioxo-6,7,8,9,10,11,12,13,14,15,16,17-dodecahydro-3H-cyclopenta[a]phenanthren-17-yl)-2-oxoethyl 6-aminohexanoate [Example 92]”: the Release rate came out at 8.21 %/day.

In turn, “Conjugate of CS and 2-((8S,9S,10R,11S,13S,14S,17R)-11,17-dihydroxy-10,13-dimethyl-3-oxo-2,3,6,7,8,9,10,11,12,13,14,15,16,17-tetradecahydro-1H-cyclopenta[a]phenanthren-17-yl)-2-oxoethyl 4-aminobutanoate [Example 39]” showed a Release rate of 0.71 %/day.

“Conjugate of CS and 2-(2-(2-(2-aminoethoxy)ethoxy)ethoxy)ethyl (2-((6αS,6βR,7S,8αS,8βS,11αR,12αS,12βS)-6β-fluoro-7-hydroxy-6α,8α,10,10-tetramethyl-4-oxo-1,2,4,6α,6β,7,8,8α,11α,12,12α,12β-dodecahydro-8βH-naphtho[2′,1′:4,5]indeno[1,2-d][1,3]dioxol-8β-yl)-2-oxoethyl) carbonate [Example 55]”: the Release rate was 1.20 %/day.

In turn, “Conjugate of CS and 2-((6αS,6βR,7S,8αS,8βS,11αR,12αS,12βS)-6β-fluoro-7-hydroxy-6α,8α,10,10-tetramethyl-4-oxo-1,2,4,6α,6β,7,8,8α,11α,12,12α,12β-dodecahydro-8βH-naphtho[2′,1′:4,5]indeno[1,2-d][1,3]dioxol-8β-yl)-2-oxoethyl 2,5-diazabicyclo[2.2.1]heptane-2-carboxylate [Example 59]” showed a Release rate of 0.02 %/day.

Substance “Conjugate of HA and 2-((6S,8S,9S,10R,11S,13S,14S,17R)-11,17-dihydroxy-6,10,13-trimethyl-3-oxo-6,7,8,9,10,11,12,13,14,15,16,17-dodecahydro-3H-cyclopenta[a]phenanthren-17-yl)-2-oxoethyl 5-aminopentanoate [Example 78]” yielded a Release rate of 8.92 %/day.

Take “Conjugate of CS and 4-aminobutyl (2-((8S,9S,10R,13S,14S,17R)-17-hydroxy-10,13-dimethyl-3,11-dioxo-2,3,6,7,8,9,10,11,12,13,14,15,16,17-tetradecahydro-1H-cyclopenta[a]phenanthren-17-yl)-2-oxoethyl) carbonate [Example 67]”: the Release rate is reported as 5.91 %/day.

“Conjugate of CS and 4-aminobutyl (2-((6S,8S,9S,10R,11S,13S,14S,17R)-11,17-dihydroxy-6,10,13-trimethyl-3-oxo-6,7,8,9,10,11,12,13,14,15,16,17-dodecahydro-3H-cyclopenta[a]phenanthren-17-yl)-2-oxoethyl) carbonate [Example 69]” showed a Release rate of 4.62 %/day.

The substance “Conjugate of HA and 4-aminobutyl (2-((8S,9R,10S,11S,13S,14S,16S,17R)-9-fluoro-11,17-dihydroxy-10,13,16-trimethyl-3-oxo-6,7,8,9,10,11,12,13,14,15,16,17-dodecahydro-3H-cyclopenta[a]phenanthren-17-yl)-2-oxoethyl) carbonate [Example 72]” came in with a Release rate of 7.86 %/day.

For the substance “Conjugate of CS (Chondroitin sulfate) and 2-aminopropyl (2-((6αS,6βR,7S,8αS,8βS,11αR,12αS,12βS)-6β-fluoro-7-hydroxy-6α,8α,10,10-tetramethyl-4-oxo-1,2,4,6α,6β,7,8,8α,11α,12,12α,12β-dodecahydro-8βH-naphtho[2′,1′:4,5]indeno[1,2-d][1,3]dioxol-8β-yl)-2-oxoethyl) carbonate [Example 53]”, the Release rate stood at 1.49 %/day.

“Conjugate of CS and 4-aminobutyl (2-((8S,9S,10R,11S,13S,14S,17R)-11,17-dihydroxy-10,13-dimethyl-3-oxo-2,3,6,7,8,9,10,11,12,13,14,15,16,17-tetradecahydro-1H-cyclopenta[a]phenanthren-17-yl)-2-oxoethyl) carbonate [Example 65]”: the Release rate is reported as 7.52 %/day.
